Values of other authors as cited in paper PMC8002558.

Molecular target: Fibrinogen (Homo sapiens) (UniProt P02671)
UniProt P02671, sequence (P02671 36-866, chain 1 of 3): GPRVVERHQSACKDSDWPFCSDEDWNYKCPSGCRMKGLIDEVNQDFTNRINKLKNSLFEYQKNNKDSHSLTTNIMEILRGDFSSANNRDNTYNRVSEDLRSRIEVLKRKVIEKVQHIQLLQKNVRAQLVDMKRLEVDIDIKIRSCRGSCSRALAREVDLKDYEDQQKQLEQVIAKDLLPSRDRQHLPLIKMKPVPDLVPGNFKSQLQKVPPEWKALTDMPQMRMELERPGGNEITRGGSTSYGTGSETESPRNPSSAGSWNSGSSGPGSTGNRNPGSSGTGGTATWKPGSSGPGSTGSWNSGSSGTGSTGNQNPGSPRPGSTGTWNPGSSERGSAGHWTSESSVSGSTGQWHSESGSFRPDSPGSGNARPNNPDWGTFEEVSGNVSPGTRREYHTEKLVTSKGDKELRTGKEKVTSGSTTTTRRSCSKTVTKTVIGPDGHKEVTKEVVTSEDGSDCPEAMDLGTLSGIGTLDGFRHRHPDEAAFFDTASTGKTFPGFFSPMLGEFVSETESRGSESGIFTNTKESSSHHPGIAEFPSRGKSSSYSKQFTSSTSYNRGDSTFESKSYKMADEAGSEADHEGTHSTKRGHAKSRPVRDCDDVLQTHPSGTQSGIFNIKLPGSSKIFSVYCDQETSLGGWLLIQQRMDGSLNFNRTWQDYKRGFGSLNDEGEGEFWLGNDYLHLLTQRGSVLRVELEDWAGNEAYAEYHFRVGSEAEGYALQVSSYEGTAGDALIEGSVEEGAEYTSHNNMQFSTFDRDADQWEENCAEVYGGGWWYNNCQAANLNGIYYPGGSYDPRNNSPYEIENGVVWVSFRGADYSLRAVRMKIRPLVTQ
UniProt P02671, sequence (P02675 45-491, chain 2 of 3, further chain): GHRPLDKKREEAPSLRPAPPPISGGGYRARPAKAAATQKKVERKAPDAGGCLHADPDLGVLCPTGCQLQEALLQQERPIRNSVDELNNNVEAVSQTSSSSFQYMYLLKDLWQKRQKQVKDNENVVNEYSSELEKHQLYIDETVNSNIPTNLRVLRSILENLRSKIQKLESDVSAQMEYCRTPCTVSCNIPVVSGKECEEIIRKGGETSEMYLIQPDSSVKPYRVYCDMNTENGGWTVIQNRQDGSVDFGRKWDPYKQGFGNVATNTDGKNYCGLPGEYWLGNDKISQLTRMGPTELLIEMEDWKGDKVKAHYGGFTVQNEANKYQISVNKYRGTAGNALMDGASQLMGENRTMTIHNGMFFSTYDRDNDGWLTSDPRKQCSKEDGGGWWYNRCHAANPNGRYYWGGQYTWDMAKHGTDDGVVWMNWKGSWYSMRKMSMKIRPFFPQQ
UniProt P02671, sequence (P02679 27-453, chain 3 of 3, further chain): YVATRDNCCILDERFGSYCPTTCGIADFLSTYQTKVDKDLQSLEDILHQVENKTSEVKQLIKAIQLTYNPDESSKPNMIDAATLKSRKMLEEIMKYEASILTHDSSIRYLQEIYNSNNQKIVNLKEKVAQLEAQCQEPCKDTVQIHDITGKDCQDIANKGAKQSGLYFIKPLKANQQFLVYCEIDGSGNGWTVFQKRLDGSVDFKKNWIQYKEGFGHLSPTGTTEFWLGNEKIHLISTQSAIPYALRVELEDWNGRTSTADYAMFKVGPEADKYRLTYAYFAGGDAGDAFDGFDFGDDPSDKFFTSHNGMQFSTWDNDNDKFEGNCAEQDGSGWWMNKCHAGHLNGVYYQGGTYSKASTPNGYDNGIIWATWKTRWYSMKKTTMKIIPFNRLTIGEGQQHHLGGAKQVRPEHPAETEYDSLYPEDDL

Kd: 10 nM
Substance: Factor XIII (plasma) (from UniProt P00488)
